# Reference: patent US7850981B2, “Immuno-adjuvant PDT treatment of metastatic tumors” (QLT, Inc., priority 1999, dated 2010)
# Like-named read-outs stand apart in the source and are kept apart here.
# B1: FLT3-ligand: cytokine factor promoting growth of hematopoietic progenitors; increases dendritic cell numbers (protein, UniProt P49771 27-235, looked up)
# Fms-related tyrosine kinase 3 …: TQDCSFQHSPISSDFAVKIRELSDYLLQDYPVTVASNLQDEELCGGLWRLVLAQRWMERLKTVAGSKMQGLLERVNTEIHFVTKCAFQPPPSCLRFVQTNISRLLQETSEQLVALKPWITRQNFSRCLELQCQPDSSTLPPPWSPRPLEATAPTAPQPPLLLLLLLPVGLLLLAAAWCLHWQRTRRRTPRPGEQVPPVPSPQDLLLVEH
# Tests used:
# DC [1] = assay: Preliminary experiments: daily injection of FLT3 L into mice, numbers of DC; format: in vivo; conditions: daily injection of 10 μg into mice for 10 days
# DC [2] = conditions: after multiple injections, cited from earlier work
molecule,measurement,setting,value
B1,numbers of DC,DC [1],dramatically increase
same,increase in DC numbers,DC [2]; blood,~6 fold
same,increase in DC numbers,DC [2]; peripheral lymph nodes,~4 fold
same,increase in DC numbers,DC [2]; spleen,approximately 17 fold
